Assays:
[1] = biological target: T1, V5-tagged Vps54 (human, UniProt Q9P1Q0 1-977); experiment: sedimentation velocity on glycerol gradient + SEC
T1 sequence: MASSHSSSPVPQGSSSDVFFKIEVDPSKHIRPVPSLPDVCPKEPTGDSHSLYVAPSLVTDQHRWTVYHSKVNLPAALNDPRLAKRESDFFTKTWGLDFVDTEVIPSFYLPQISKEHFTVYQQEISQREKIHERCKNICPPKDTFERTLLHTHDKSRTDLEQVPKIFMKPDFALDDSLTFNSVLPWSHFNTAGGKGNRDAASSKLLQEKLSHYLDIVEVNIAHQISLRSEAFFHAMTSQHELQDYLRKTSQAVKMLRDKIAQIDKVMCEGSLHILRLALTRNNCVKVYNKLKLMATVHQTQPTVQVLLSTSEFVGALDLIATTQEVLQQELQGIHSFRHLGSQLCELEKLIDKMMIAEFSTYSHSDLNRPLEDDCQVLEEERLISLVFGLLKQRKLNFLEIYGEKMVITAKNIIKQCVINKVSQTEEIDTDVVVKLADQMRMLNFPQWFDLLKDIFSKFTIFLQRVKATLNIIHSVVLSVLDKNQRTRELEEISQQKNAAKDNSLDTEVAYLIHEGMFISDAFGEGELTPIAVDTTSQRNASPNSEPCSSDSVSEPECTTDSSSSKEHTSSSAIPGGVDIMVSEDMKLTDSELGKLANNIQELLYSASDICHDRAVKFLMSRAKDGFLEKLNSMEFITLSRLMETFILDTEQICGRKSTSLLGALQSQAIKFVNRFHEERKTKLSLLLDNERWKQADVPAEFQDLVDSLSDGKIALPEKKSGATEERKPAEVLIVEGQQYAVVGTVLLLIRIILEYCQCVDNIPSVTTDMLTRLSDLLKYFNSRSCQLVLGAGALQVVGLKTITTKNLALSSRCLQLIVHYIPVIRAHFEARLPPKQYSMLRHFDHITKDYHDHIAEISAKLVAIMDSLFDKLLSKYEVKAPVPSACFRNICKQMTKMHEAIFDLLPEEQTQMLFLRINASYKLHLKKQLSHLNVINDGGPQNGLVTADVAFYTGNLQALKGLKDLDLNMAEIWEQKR

[2] = biological target: T2, V5-tagged Vps53 (human, UniProt Q5VIR6 1-832); experiment: sedimentation velocity on glycerol gradient + SEC
T2 sequence: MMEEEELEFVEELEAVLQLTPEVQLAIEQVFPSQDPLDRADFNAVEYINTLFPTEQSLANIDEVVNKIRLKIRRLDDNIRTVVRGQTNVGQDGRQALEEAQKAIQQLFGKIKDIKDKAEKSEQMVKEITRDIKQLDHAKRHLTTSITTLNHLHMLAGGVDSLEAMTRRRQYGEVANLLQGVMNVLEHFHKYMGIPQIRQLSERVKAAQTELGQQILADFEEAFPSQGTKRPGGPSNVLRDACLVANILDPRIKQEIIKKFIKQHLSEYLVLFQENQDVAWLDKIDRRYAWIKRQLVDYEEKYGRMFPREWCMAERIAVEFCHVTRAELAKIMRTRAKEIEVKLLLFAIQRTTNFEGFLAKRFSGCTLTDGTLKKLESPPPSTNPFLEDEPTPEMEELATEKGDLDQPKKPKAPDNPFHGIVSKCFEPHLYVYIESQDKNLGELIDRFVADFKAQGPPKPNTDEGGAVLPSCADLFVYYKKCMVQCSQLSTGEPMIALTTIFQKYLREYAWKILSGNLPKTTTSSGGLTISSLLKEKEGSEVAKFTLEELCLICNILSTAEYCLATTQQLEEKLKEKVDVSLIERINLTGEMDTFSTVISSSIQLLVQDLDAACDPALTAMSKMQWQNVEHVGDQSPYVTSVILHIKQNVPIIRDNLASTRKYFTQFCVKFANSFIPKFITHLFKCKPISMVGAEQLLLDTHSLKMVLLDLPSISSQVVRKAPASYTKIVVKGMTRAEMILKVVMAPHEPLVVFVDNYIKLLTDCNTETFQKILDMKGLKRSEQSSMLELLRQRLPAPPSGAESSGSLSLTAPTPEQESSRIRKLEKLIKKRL

stoichiometry N [1]: 1
stoichiometry N [2]: 1
B1: V5-tagged human Ang2 (natural protein)
chain: MAAAAAAGPSPGSGPGDSPEGPEGEAPERRRKAHGMLKLYYGLSEGEAAGRPAGPDPLDPTDLNGAHFDPEVYLDKLRRECPLAQLMDSETDMVRQIRALDSDMQTLVYENYNKFISATDTIRKMKNDFRKMEDEMDRLATNMAVITDFSARISATLQDRHERITKLAGVHALLRKLQFLFELPSRLTKCVELGAYGQAVRYQGRAQAVLQQYQHLPSFRAIQDDCQVITARLAQQLRQRFREGGSGAPEQAECVELLLALGEPAEELCEEFLAHARGRLEKELRNLEAELGPSPPAPDVLEFTDHGGSGFVGGLCQVAAAYQELFAAQGPAGAEKLAAFARQLGSRYFALVERRLAQEQGGGDNSLLVRALDRFHRRLRAPGALLAAAGLADAATEIVERVARERLGHHLQGLRAAFLGCLTDVRQALAAPRVAGKEGPGLAELLANVASSILSHIKASLAAVHLFTAKEVSFSNKPYFRGEFCSQGVREGLIVGFVHSMCQTAQSFCDSPGEKGGATPPALLLLLSRLCLDYETATISYILTLTDEQFLVQDQFPVTPVSTLCAEARETARRLLTHYVKVQGLVISQMLRKSVETRDWLSTLEPRNVRAVMKRVVEDTTAIDVQVGLLYEEGVRKAQSSDSSKRTFSVYSSSRQQGRYAPSYTPSAPMDTNLLSNIQKLFSERIDVFSPVEFNKVSVLTGIIKISLKTLLECVRLRTFGRFGLQQVQVDCHFLQLYLWRFVADEELVHLLLDEVVASAALRCPDPVPMEPSVVEVICERG

— PMC2947474 (Molecular Biology of the Cell, 2010)
